From paper PMC7723414, “Cryo-EM structure of the calcium release-activated calcium channel Orai in an open conformation” (eLife, 2020)
Each block holds one binder with its values, some of them ahead of it.

How the values were obtained:
[1] = target: the molecule itself; assay: cryo-EM structure; Orai_(H206A) in amphipol A8-35 combined with 19B5 Fab at a molar ratio of 0.78:1 (Fab to Orai monomer), 5 mM CaCl2, 150 mM NaCl, 20 mM Tris pH 8.5, on ice 30 min; single particle analysis
[2] = target: T1, Orai_(H206A) (Drosophila melanogaster Orai, amino acids 133-341, with C224S, C283T and H206A) (Drosophila melanogaster, UniProt Q9U6B8, C224S | C283T | H206A); assay: as above; conditions: both partners purified
T1 construct: construct identical to the one of Hou et al., 2018; Hexameric channel; The atomic model holds amino acids 156-305 except 217-239; also called H206A Orai; purified Orai_(H206A)

[3] = target: T2, wild-type Orai (amino acids 120-351) with N-terminal mCherry tag (Drosophila melanogaster, UniProt Q9U6B8); assay: live-cell ELISA; intact HEK293 cells transfected with mCherry-tagged Orai constructs or vector; purified 19B5 IgG1 1 uM, 20 min, room temperature; HRP-conjugated secondary antibody, TMB, absorbance at 450 nm; conditions: one partner purified
T2 construct: Orai, Drosophila melanogaster, amino acids 120-351; Construct reported in Hou et al., 2018; vector modified from pNGFP-EU; also called Orai-mCherry; source: HEK293, transfected, on intact cells; not shown: mCherry, N-terminal, kept
T2 sequence (Q9U6B8 120-351): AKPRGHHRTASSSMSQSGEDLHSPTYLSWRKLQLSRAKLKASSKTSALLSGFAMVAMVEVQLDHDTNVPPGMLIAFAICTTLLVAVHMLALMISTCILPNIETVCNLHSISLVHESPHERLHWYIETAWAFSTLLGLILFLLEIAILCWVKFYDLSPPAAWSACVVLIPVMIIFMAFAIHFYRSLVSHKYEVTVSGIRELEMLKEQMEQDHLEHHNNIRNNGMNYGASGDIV

B1: Orai_(H206A) (Drosophila melanogaster Orai, amino acids 133-341, with C224S, C283T and H206A) (domain or fragment, UniProt Q9U6B8 133-341, looked up)
chain: MSQSGEDLHSPTYLSWRKLQLSRAKLKASSKTSALLSGFAMVAMVEVQLDHDTNVPPGMLIAFAICTTLLVAVAMLALMISTCILPNIETVSNLHSISLVHESPHERLHWYIETAWAFSTLLGLILFLLEIAILCWVKFYDLSPPAAWSATVVLIPVMIIFMAFAIHFYRSLVSHKYEVTVSGIRELEMLKEQMEQDHLEHHNNIRNNG
notes: construct identical to the one of Hou et al., 2018; Hexameric channel; The atomic model holds amino acids 156-305 except 217-239; also called H206A Orai; purified Orai_(H206A)
stoichiometry N [1]: 6 subunits per channel

stoichiometry N [2]: ≤ 3 Fabs per channel
B2: 19B5 Fab antibody fragment (Fab, V domains shown)
VH: EVQLVESGGGLVQPKGSLKLSCAASGFTFNTYAMHWVRQAPGKGLEWVARIRTKSNNYATYYADSVKDRFTISRDDSQSMLYLQMNNLKTEDTAMYYCVRQKYGNYFDYWGQGTTLTVSS
VL: DVVMTQSQKFMSTSVGDRVSVTCKASQNVGINVAWYQQKPGQSPKALINSASYRNSGVPDRFTGGGSGTDFTLTINNVQSEDLAEYFCQQCNSYPLTFGAGTKLELR
notes: the deposited model PDB 7KR5 holds the variable domains; mouse IgG1; Fab of the mouse monoclonal IgG1 19B5; source: IgG from mouse hybridoma cells, purified by ion exchange, cleaved with papain; Fab purified (Mono S, SEC)

binding result [3]: binds
B3: monoclonal antibody 19B5 (mouse IgG1) (antibody, V domains shown)
VH: EVQLVESGGGLVQPKGSLKLSCAASGFTFNTYAMHWVRQAPGKGLEWVARIRTKSNNYATYYADSVKDRFTISRDDSQSMLYLQMNNLKTEDTAMYYCVRQKYGNYFDYWGQGTTLTVSS
VL: DVVMTQSQKFMSTSVGDRVSVTCKASQNVGINVAWYQQKPGQSPKALINSASYRNSGVPDRFTGGGSGTDFTLTINNVQSEDLAEYFCQQCNSYPLTFGAGTKLELR
notes: as the heavy chain of m2 (variable domain in PDB 7KR5), whole mouse IgG1 heavy chain; as the light chain of m2 (variable domain in PDB 7KR5); IgG1; also called 19B5 antibody; Drosophila Orai-19B5 (mouse monoclonal); source: mouse hybridoma cells, purified by ion exchange chromatography
